In patent US20070105771A1 (Y S THERAPEUTICS, published 2007):

Tests used:
[1] = biological target: T1, human CD26-derived 13 mer peptide 103 (human); assay: peptide microarray
T1 peptide: VRVPYPKAGAVNP
Procedure: (§1) The overnight incubation was followed by three washings with each of PBS buffer pH 7.5 and water. The microarrays were then scanned using ArrayWorx-Microarray Scanner.
(§2) The SPOT recognition software package ArrayPro was used for data analysis. The mean of signal intensities from 3 identical subarrays on each microarray image was used for data evaluation.

[2] = biological target: T2, human CD26-derived 13 mer peptide 21 (human); assay: peptide microarray
T2 peptide: VFLENSTFDEFGH
Procedure: as §1, §2

[3] = biological target: T3, human CD26-derived 13 mer peptide 106 (human); assay: peptide microarray
T3 peptide: KAGAVNPTVKFFV
Procedure: as §1, §2

[4] = biological target: T4, human CD26-derived 13 mer peptide 19 (human); assay: peptide microarray
T4 peptide: GNSSVFLENSTFD
Procedure: as §1, §2

[5] = biological target: T5, human CD26-derived 13 mer peptide 118 (human); assay: peptide microarray
T5 peptide: ATSIQITAPASML
Procedure: as §1, §2

[6] = biological target: T6, human CD26-derived 13 mer peptide 100 (human); assay: peptide microarray
T6 peptide: LQYPKTVRVPYPK
Procedure: as §1, §2

[7] = biological target: T7, human CD26-derived 13 mer peptide 42 (human); assay: peptide microarray
T7 peptide: ASYDIYDLNKRQL
Procedure: as §1, §2

[8] = biological target: T8, human CD26-derived 13 mer peptide 96 (human); assay: peptide microarray
T8 peptide: YSFYSDESLQYPK
Procedure: as §1, §2

[9] = biological target: T9, human CD26-derived 13 mer peptide 23 (human); assay: peptide microarray
T9 peptide: NSTFDEFGHSIND
Procedure: as §1, §2

[10] = biological target: T10, human CD26-derived 13 mer peptide 130 (human); assay: peptide microarray
T10 peptide: ATQERISLQWLRR
Procedure: as §1, §2

[11] = biological target: T11, human CD26-derived 13 mer peptide 18 (human); assay: peptide microarray
T11 peptide: EYGNSSVFLENST
Procedure: as §1, §2

[12] = biological target: T12, human CD26-derived 13 mer peptide 24 (human); assay: peptide microarray
T12 peptide: TFDEFGHSINDYS
Procedure: as §1, §2

[13] = biological target: T13, human CD26-derived 13 mer peptide 49 (human); assay: peptide microarray
T13 construct: also called TEERJPNNTQWVT
T13 peptide: TEERIPNNTQWVT
Procedure: as §1, §2

[14] = biological target: T14, human CD26-derived 13 mer peptide 51 (human); assay: peptide microarray
T14 peptide: IPNNTQWVTWSPV
Procedure: as §1, §2

[15] = biological target: T15, human CD26-derived 13 mer peptide 115 (human); assay: peptide microarray
T15 peptide: LSSVTNATSIQIT
Procedure: as §1, §2

[16] = biological target: T16, human CD26-derived 13 mer peptide 46 (human); assay: peptide microarray
T16 construct: also called NKRQL1TEERIPN
T16 peptide: NKRQLITEERIPN
Procedure: as §1, §2

[17] = biological target: T17, human CD26-derived 13 mer peptide 88 (human); assay: peptide microarray
T17 peptide: FLAYAQFNDTEVP
Procedure: as §1, §2

[18] = biological target: T18, human CD26-derived 13 mer peptide 102 (human); assay: peptide microarray
T18 peptide: KTVRVPYPKAGAV
Procedure: as §1, §2

[19] = biological target: T19, human CD26-derived 13 mer peptide 47 (human); assay: peptide microarray
T19 peptide: RQLITEERIPNNT
Procedure: as §1, §2

[20] = biological target: T20, human CD26-derived 13 mer peptide 12 (human); assay: peptide microarray
T20 peptide: YKQENNILVFNAE
Procedure: as §1, §2

[21] = biological target: T21, human CD26-derived 13 mer peptide 111 (human); assay: peptide microarray
T21 peptide: FFVVNTDSLSSVT
Procedure: as §1, §2

[22] = biological target: T22, human CD26-derived 13 mer peptide 99 (human); assay: peptide microarray
T22 peptide: ESLQYPKTVRVPY
Procedure: as §1, §2

[23] = biological target: T23, human CD26-derived 13 mer peptide 122 (human); assay: peptide microarray
T23 peptide: PASMLIGDHYLCD
Procedure: as §1, §2

[24] = biological target: T24, human CD26-derived 13 mer peptide 114 (human); assay: peptide microarray
T24 peptide: DSLSSVTNATSIQ
Procedure: as §1, §2

[25] = biological target: T25, human CD26-derived 13 mer peptide 108 (human); assay: peptide microarray
T25 peptide: VNPTVKFFVVNTD
Procedure: as §1, §2

[26] = biological target: T26, human CD26-derived 13 mer peptide 45 (human); assay: peptide microarray
T26 peptide: DLNKRQLITEERI
Procedure: as §1, §2

[27] = biological target: T27, human CD26-derived 13 mer peptide 20 (human); assay: peptide microarray
T27 peptide: SSVFLENSTFDEF
Procedure: as §1, §2

[28] = biological target: T28, human CD26-derived 13 mer peptide 105 (human); assay: peptide microarray
T28 peptide: YPKAGAVNPTVKF
Procedure: as §1, §2

[29] = biological target: T29, human CD26-derived 13 mer peptide 44 (human); assay: peptide microarray
T29 peptide: IYDLNKRQLITEE
Procedure: as §1, §2

[30] = biological target: T30, human CD26-derived 13 mer peptide 113 (human); assay: peptide microarray
T30 peptide: NTDSLSSVTNATS
Procedure: as §1, §2

[31] = biological target: T31, human CD26-derived 13 mer peptide 90 (human); assay: peptide microarray
T31 peptide: AQFNDTEVPLIEY
Procedure: as §1, §2

[32] = biological target: T32, human CD26-derived 13 mer peptide 22 (human); assay: peptide microarray
T32 peptide: LENSTFDEFGHSI
Procedure: as §1, §2

[33] = biological target: T33, human CD26-derived 13 mer peptide 112 (human); assay: peptide microarray
T33 peptide: VVNTDSLSSVTNA
Procedure: as §1, §2

[34] = biological target: T34, human CD26-derived 13 mer peptide 14 (human); assay: peptide microarray
T34 peptide: NNILVFNAEYGNS
Procedure: as §1, §2

[35] = biological target: T35, human CD26-derived 13 mer peptide 120 (human); assay: peptide microarray
T35 peptide: QITAPASMLIGDH
Procedure: as §1, §2

[36] = biological target: T36, human CD26-derived 13 mer peptide 89 (human); assay: peptide microarray
T36 peptide: AYAQFNDTEVPLI
Procedure: as §1, §2

[37] = biological target: T37, human CD26-derived 13 mer peptide 119 (human); assay: peptide microarray
T37 peptide: SIQITAPASMLIG
Procedure: as §1, §2

[38] = biological target: T38, human CD26-derived 13 mer peptide 25 (human); assay: peptide microarray
T38 peptide: DEFGHSINDYSIS
Procedure: as §1, §2

[39] = biological target: T39, human CD26-derived 13 mer peptide 117 (human); assay: peptide microarray
T39 peptide: TNATSIQITAPAS
Procedure: as §1, §2

[40] = biological target: T40, human CD26-derived 13 mer peptide 9 (human); assay: peptide microarray
T40 peptide: SDHEYLYKQENNI
Procedure: as §1, §2

[41] = biological target: T41, human CD26-derived 13 mer peptide 74 (human); assay: peptide microarray
T41 peptide: IYNGITDWVYEEE
Procedure: as §1, §2

[42] = biological target: T42, human CD26-derived 13 mer peptide 116 (human); assay: peptide microarray
T42 peptide: SVTNATSIQITAP
Procedure: as §1, §2

[43] = biological target: T43, human CD26-derived 13 mer peptide 26 (human); assay: peptide microarray
T43 peptide: FGHSINDYSISPD
Procedure: as §1, §2

[44] = biological target: T44, human CD26-derived 13 mer peptide 104 (human); assay: peptide microarray
T44 peptide: VPYPKAGAVNPTV
Procedure: as §1, §2

[45] = biological target: T45, human CD26-derived 13 mer peptide 27 (human); assay: peptide microarray
T45 peptide: HSINDYSISPDGQ
Procedure: as §1, §2

[46] = biological target: T46, human CD26-derived 13 mer peptide 110 (human); assay: peptide microarray
T46 peptide: VKFFVVNTDSLSS
Procedure: as §1, §2

[47] = biological target: T47, human CD26-derived 13 mer peptide 61 (human); assay: peptide microarray
T47 peptide: WNNDIYVKIEPNL
Procedure: as §1, §2

[48] = biological target: T48, human CD26-derived 13 mer peptide 109 (human); assay: peptide microarray
T48 peptide: PTVKFFVVNTDSL
Procedure: as §1, §2

[49] = biological target: human CD26 on the cell surface (human, UniProt P27487 1-766); assay: cell-based or functional assay
human CD26 on the cell surface, sequence (P27487 whole entry): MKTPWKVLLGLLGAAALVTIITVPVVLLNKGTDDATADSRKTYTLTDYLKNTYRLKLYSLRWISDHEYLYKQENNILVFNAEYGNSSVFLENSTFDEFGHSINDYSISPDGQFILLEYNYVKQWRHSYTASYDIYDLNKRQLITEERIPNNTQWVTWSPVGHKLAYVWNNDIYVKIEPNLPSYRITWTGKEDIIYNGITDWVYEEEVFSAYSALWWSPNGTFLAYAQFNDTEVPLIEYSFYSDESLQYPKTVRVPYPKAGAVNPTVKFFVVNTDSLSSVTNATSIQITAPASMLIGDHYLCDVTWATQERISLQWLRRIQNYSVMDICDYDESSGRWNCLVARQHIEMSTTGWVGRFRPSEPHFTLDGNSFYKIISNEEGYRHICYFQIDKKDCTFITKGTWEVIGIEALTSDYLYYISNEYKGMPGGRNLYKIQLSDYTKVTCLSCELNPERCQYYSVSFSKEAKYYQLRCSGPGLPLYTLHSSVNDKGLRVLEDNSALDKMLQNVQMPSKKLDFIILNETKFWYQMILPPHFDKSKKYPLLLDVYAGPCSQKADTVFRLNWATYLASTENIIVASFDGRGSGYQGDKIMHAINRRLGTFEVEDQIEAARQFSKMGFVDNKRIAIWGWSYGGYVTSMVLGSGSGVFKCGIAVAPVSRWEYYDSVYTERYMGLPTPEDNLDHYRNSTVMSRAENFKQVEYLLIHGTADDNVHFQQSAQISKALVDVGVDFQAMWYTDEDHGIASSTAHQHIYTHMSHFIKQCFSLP

B1: rhuMAb 409 (antibody, human IgG1, V domains shown)
VH: QVKLQESGPGLVQPSQTLSITCTVSGFSLTTYGVHWVRQSPGKGLEWLGVIWGGGRTDYDAAFISRLSISKDNSKSQVFFKMNSLQANDTAIYYCVRNRHDWFDYWGQGTTVTVSS
VL: DIQMTQSPSSLSASLGDRVTITCSASQGIRNSLNWYQQKPDGAVKLLIYYSSNLHSGVPSRFSGSGSGTDFSLTISNLEPEDIATYYCQQSIKLPFTFGSGTKLEIKR
notes: CM03 VH and VL with human IgG1 heavy chain constant region and human kappa constant region; also called X409
4.8%: percent inhibition, MTT assay, Jurkat CD26+ cells, 0.05 ug/ml [49]
10: Mean Signal Value [10]
19.7%: percent inhibition, MTT assay, Jurkat CD26+ cells, 2.5 ug/ml [49]
12.9%: percent inhibition, MTT assay, Jurkat CD26+ cells, 0.25 ug/ml [49]
0: Mean Signal Value [1] | Mean Signal Value [2] | Mean Signal Value [3] | Mean Signal Value [4] | Mean Signal Value [5] | Mean Signal Value [6] | Mean Signal Value [7] | Mean Signal Value [8] | Mean Signal Value [9] | Mean Signal Value [11] | Mean Signal Value [12] | Mean Signal Value [13] | Mean Signal Value [14] | Mean Signal Value [15] | Mean Signal Value [16] | Mean Signal Value [17] | Mean Signal Value [18] | Mean Signal Value [19] | Mean Signal Value [20] | Mean Signal Value [21] | Mean Signal Value [22] | Mean Signal Value [23] | Mean Signal Value [24] | Mean Signal Value [25] | Mean Signal Value [26] | Mean Signal Value [27] | Mean Signal Value [28] | Mean Signal Value [29] | Mean Signal Value [30] | Mean Signal Value [31] | Mean Signal Value [32] | Mean Signal Value [33] | Mean Signal Value [34] | Mean Signal Value [35] | Mean Signal Value [36] | Mean Signal Value [37] | Mean Signal Value [38] | Mean Signal Value [39] | Mean Signal Value [40] | Mean Signal Value [41] | Mean Signal Value [42] | Mean Signal Value [43] | Mean Signal Value [44] | Mean Signal Value [45] | Mean Signal Value [46] | Mean Signal Value [47] | Mean Signal Value [48]
21.7%: percent inhibition, MTT assay, Jurkat CD26+ cells, 5 ug/ml [49]
14.7%: percent inhibition, MTT assay, Jurkat CD26+ cells, 0.5 ug/ml [49]
